Source: the nanobody polyreactivity screen of Harvey et al. (2022)

Assay: yeast display, Sf9 membrane polyspecificity reagent, FACS + sequencing; frameworks hold sequencing errors
How it was run: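 Nanobodies from a synthetic yeast display library (Saccharomyces cerevisiae BJ5465), induced 36–48 hours with galactose, were stained 1 hour at 4 °C with 10% biotinylated, detergent-solubilized Sf9 membrane reagent, enriched on streptavidin microbeads, then FACS-sorted. Anti-HA (expression) and streptavidin (reagent binding) fluorescence set low and high (top ~1%) gates. Polyreactivity labels come from the gate of origin. Genes were colony-PCR amplified, MiSeq 2 × 250 sequenced and filtered by CDR length.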

Row | Sequence | polyreactivity (PSR sort gate)
1 | QVQLVESGGGLVQAGGSLRLSCAASGSTIYRYAMGWNRQAPGKERELVATISRTGARTNYADSVKGRFTISRDNAKNTVYLQMNSLKPEDTAVYYCAASAPYIYYWGQGTQVTVSS | high polyreactivity
2 | QVQLVESGGGLVQAGGSLRLSCAASGSTIYTYAMGWYRPAPGKERELVAAISYRAGSTYYADSVKGRFTISRDNAKTSVYFQMNSLTPEDTAVYYCNVDGVVVGTKRGGYDYWGQGTQVTVSS | low polyreactivity
3 | QVQLVESGGGLVQAGGSLRLSCAASGSTLAPYVMGWYIQAPGKERELVAVISTRTGRTYYAVSVKGRFTISRDNAKNTVYLQMNSLKPEDTAVYYCAAAYGWSWYRYDYWGQGTQVTVSS | high polyreactivity
4 | QVQLVESGGGLVQAGGSLRLSCAASGSTLARYAMGWYRQAPGKERELVAAISSDGRTYYADSVKGRYTISRDNAKNTVYLQIYSLKPEDTAVYYCATLRPYAYPQYDSWGQGTQVTVSS | high polyreactivity
5 | QVQLVESGGGLVQAGGSLRLSCAASGSTLASYAMGWYRQAPGKERELVAVIDSGGSTYYADSVKGRFTISRDNAKNTVYLQMNSLKPEDTAVYYCAAGWEFSGVLTLFGYWGQGTQVTVSS | low polyreactivity
6 | QVQLVESGGGLVQAGGSLRLSCAASGSTLASYARGWYRQAPGKERELVAAISSSGGSTYYADSVKGRFTISRDNAKNTVYLQMNSLKPEDSEVYYCAARTRTRYGIDYYWGQGTQVTVSS | high polyreactivity
7 | QVQLVESGGGLVQAGGSLRLSCAASGSTLATYTMGWYRQAPGKERELVAAISFGGSTYYADSVKGRFTISRDNAKNTVYLQMNRLKPEDTAVYYCAVYGDSYWGAYYYSDGYWGQGTQVTVSS | low polyreactivity
8 | QVQLVESGGGLVQAGGSLRLSCAASGSTLAVYAMGWYRQAPGKERELDAAISYSGGGTYYADSVKGRFTISRDNAKNTVYLQMNSLKPEDTAVYYCATDLYYEYYTWDYYWGQGTQVTVSS | low polyreactivity
9 | QVQLVESGGGLVQAGGSLRLSCAASGSTLAVYAMLWYRQAPGKERELVAAISYSGGGTYYADSVKGRFTISRDNAKNTVYLQMNSLKPEDTAVYYCATDLYYEYFTWDYYWGQGTQVTVSS | low polyreactivity
10 | QVQLVESGGGLVQAGGSLRLSCAASGSTLDFNAMGWYRQAPGKERELVAGISRDGGSTYYADSVKGRFTISRDNAKNTVYLQMNSLKPEDTAVYYCAVDFLDWYQDYYITYDYWGQGTQVTVSS | low polyreactivity
11 | QVQLVESGGGLVQAGGSLRLSCAASGSTLDFNAMGWYRQAPGKERELVATITYGVGKNYADSVKGRFTISRDNAKNTVYLQMNSLKPEDTAVYYCAANNWDYARYTYWYYSFLAYDYWGQGTQVTVSS | low polyreactivity
12 | QVQLVESGGGLVQAGGSLRLSCAASGSTLDIYAMGWYRQAPGKERELVAAITSGGSTNYADSVKGRFTISRDNAKNTVYLQMNSLKPEDTAVYYCNARYFRGYDYWGQGTQVTVSS | high polyreactivity
13 | QVQLVESGGGLVQAGGSLRLSCAASGSTLDRNTMGWYRAAPGKESELVAAITWSGGRTYYADSVKGRFTISRDNANNSVYLQLNSLKPEDTAVYYCNKDYWKRPVDEYDYWGQGTQVTVSS | high polyreactivity
14 | QVQLVESGGGLVQAGGSLRLSCAASGSTLDSNAMGWYRQAPGKERELVAGIDWSGGSTYADSVKGRFTISRDNAKNTVYLQMNSLKPEDTAVYYCAKVSRYVQPYSRFDYWGQGTQVTVSS | low polyreactivity
15 | QVQLVESGGGLVQAGGSLRLSCAASGSTLDYNAMGWYRQATGKERELVAAINWSGGRTYYADSVKGRFTISRDNAKNTVYLQMNSLKPEDTAVYFCAAVDYKAKGYGYWGQGTQVTVSS | high polyreactivity
16 | QVQLVESGGGLVQAGGSLRLSCAASGSTLEPNAMGWYRQAPGKERELVAAITIGGSTYYADSVKGRFTISRDNAKNTVYLQMNSLKPEDTSVYYCARRVSRYSWRNYWGQGTQVTVSS | high polyreactivity

Row | Sequence | polyreactivity (PSR sort gate)
17 | QVQLVESGGGLVQAGGSLRLSCAASGSTLERYTMGWYRQAPGKERELVAAIRWSGTSTYYADSVKGRFTISRDNAKNTVYLQMKSLKPEDTAVYYCARVGFSRYYRTMYYWGQGTQVTVSS | high polyreactivity
18 | QVQLVESGGGLVQAGGSLRLSCAASGSTLFIYAMGWYRQAPGKEREFVAGISYSGGSTYYADSVKGRFTISRDNAKNTVYLQMNSLKPEDTAVYYCAARTFSKPLTYRPYSGLFYYWGQGTQVTVSS | high polyreactivity
19 | QVQLVESGGGLVQAGGSLRLSCAASGSTLFLYAMGWYRQAPGKERELVAAITWSGGSTYYADSVKGRFTISRDNAKKTVYLQMNSLKPEDTAVYYCAKYGRYFWNSGVDYWGQGTQVTVSS | high polyreactivity
20 | QVQLVESGGGLVQAGGSLRLSCAASGSTLFSYAMGWYRQAPGKEREFVAAISRRGGSTYYEDSVKGRFTISRDYAKNTVYLQMNSLKPEETAVYYCAARDSSYNWYGYWGQGTQVTVSW | high polyreactivity
21 | QVQLVESGGGLVQAGGSLRLSCAASGSTLFYNDMGWYRQAPGKEREFVAAIRSNDGSTYYADSVKGRFTISRDNAKNTVYLQMKSLKPEDTAVYYCNKDVWDGYDWPEFDYWGQGTQVTVSS | low polyreactivity
22 | QVQLVESGGGLVQAGGSLRLSCAASGSTLGGSVMGWSRQAPGKERELVASITYSGGSTRYADSVKGRFTISRDNAKNTVYLQMNSLKPEDTAVYYCAAGAQRTYYTYSFRRVGYDYDYWGQGTQVTVSS | low polyreactivity
23 | QVQLVESGGGLVQAGGSLRLSCAASGSTLGHNAMGWYRQAPGKERELVAAITSSGGRTYYADSVKGRFTISRDNAKNTVYLQMYSLKPEDTAVYYCAAKLHGYYDVFGQSHRTYDYWGQGTQVTVSS | high polyreactivity
24 | QVQLVESGGGLVQAGGSLRLSCAASGSTLGLNAMGWYRHAPRKEREFVAAISQGGTRTYYADSVKGRLTNSRDNAKNCVYLQMNSLKPEDTAVYYCAALRHRTRAASGGDYWGQGTQVNVSS | high polyreactivity
25 | QVQLVESGGGLVQAGGSLRLSCAASGSTLGPNVMGWYRQAPGKERELVAAISWRGGSTYYADSVKGRFTISRDNAKNTVYLQMNSLKPEDTAVNYGAARTTTYPYGYWGQGTQVTVSS | high polyreactivity
26 | QVQLVESGGGLVQAGGSLRLSCAASGSTLGRNAMGWYRQAPGKERELVAGIDGSAGSTYYADSVKGRFTISRDNAKNSVYLQMNSLKPEDTAVYYCNADVIDLDYDYWGQGTQVTVSS | low polyreactivity
27 | QVQLVESGGGLVQAGGSLRLSCAASGSTLGRNVMGWYRQAPGKERELVAAISSRGSRTYYADSVKGRFTISRDNAKNTVYLQMNSLKPEDTAVYYCNRGWAHSNAKFDYWGQGTQVTVSS | high polyreactivity
28 | QVQLVESGGGLVQAGGSLRLSCAASGSTLGRYTLGWYRQAPGNERELVAAIRASGTSTYYADSVKGRFTISRDNAKNTVYLQMNSLKPEDTAVYYCNALQFGTVRLDSWGQGTQVTVSS | low polyreactivity
29 | QVQLVESGGGLVQAGGSLRLSCAASGSTLGSNTMGWYRQAPGKERELVATISRRGGSTYYADSVKGRFTISRDNAKNTVYLQMNSLKPEDTAVYYCAAPPVYKFTNGDYRSTFFHWGQGTQVTVSS | high polyreactivity
30 | QVQLVESGGGLVQAGGSLRLSCAASGSTLGYYAMGWYRQAPGKERELVATITRSGGNTYYADSVKGRFTISRDNAKNTVYLQMNSLKPEDTAVYYCAARRLYGSQRGYWGQGTQVTVSS | high polyreactivity
31 | QVQLVESGGGLVQAGGSLRLSCAASGSTLGYYDMGWYRQAPGKERELVAAITKSGGSTYYADSVKGRFTISRDNEKNNVYLQMNSLKPEDTAVYYCAAVYVSPKPGTRYYYWGQGTQVTVSS | high polyreactivity
